Positions count from the first letter of the chain named.
B1: Ab 27 (scFv, V domains shown)
VH: QVQLVQSGTEVKKPGASVKVSCKASGYSFTGSHLHWVRQAPGQGLEWMGWINPDSGVINYAQKFQGRVTLTRDTSISTAYMELSGLRSDDTAVYYCARDKAIGYVWALDYWGQGTLVTVSS
VL: QSALTQPPSVSGSPGQSVTISCTGTSSDVGTYNRVSWYQQPPGKAPKLMIYEVSNRPSGVSNRFSGSKSGNTASLTISGLQAEDEADYYCSSYTRTFTYVFGTGTKVTVL
B2: Ab_14 (scFv, V domains shown)
VH: QVQLQQSGPGLVKPSQTLSLTCAISGDSVSSNSAAWNWIRQSPARGLEWLGRTYYRSRWYNDYAISMKSRITINPDTSKNQFSLQLESVTPEDTAVYYCAREIRGFDYWGQGTLVTVSS
VL: QSVLTQPPSASGSPGQSVTISCTGTSSDVGAYNFVSWYQHHPGKAPKLIIYDFNKRPSGVPDRFSGSKSGNTASLTVSGLQADDEADYYCSSYAGSNNFDVVFGGGTKLTVL
B3: Ab_16 (scFv, V domains shown)
VH: QVQLVQSGGGVVQPGRSLRLSCAASGFTFSNYGMHWVRQAPGKGLEWVALIWERGSKKDYADSVKGRFTVSRDNSKNTLYLQMNSLRPEDTAVYFCAREGISMTGAEYFQHWGQGTLVTVSS
VL: QSVLTQPPSVSGSPGQRVTMSCTGSSSNIGAGYDVHWYQQVPGAAPRLLIYGTNNRPSGVPDRFSGSKSGTSASLTITGLQAEDEADYYCQSYDNSLTDPYVFGTGTKVTVL
B4: Ab 23 (scFv, V domains shown)
VH: EVQLVQSGAEVKKPGSSVKVSCRSSGGTFSTYGITWVRQAPGQGLEWMGRIIPSLGIPNYAQKFQGRVTITADTSVSTAWMELSSLESDDTAIYYCARENIDLATNDFWGQGTLVTVSS
VL: QSALTQPPSASGSPGQSVTISCTGTSRDIGAYGYVSWYQQVPGKAPKLIIYEVRNRPSGVSSRFSGSKSGNTASLTISGLQAEDEADYYCSSYTSSSTLDVVFGGGTKLTVL
B5: RBD-R3-E1-A5 Ab (Ab_30) (scFv, V domains shown)
VH: QVQLVQSGGGVVQPGKSLRLSCTASGFTFSDFPIHWVRQAPGKGLEWVGVISYDGNIKYYGDSVKGRFTISRDNAKNSLYLQMNSLRVEDTAVYYCARGGSSFDIWGQGTTVTVSS
VL: SYELTQPPSVSEAPRQRVTISCSGSTSNIGNNAVSWYQHLPGKAPKLLIYYNERLPSGVSDRFSGSKSGTSASLAISGLRSEDEADYYCAAWDDSLSGHVVFGGGTKLTVL
B6: S1-RBD-R3-T1-D7 Ab (Ab_34) (scFv, V domains shown)
VH: QVQLVQSGVEVKKPGESLKISCKGSGYSFTSYWIGWVRQMPGKGLEWMGIIYPGDSDTRYSPSFQGQVTISADKSISTAYLQWSSLKASDTAMYYCARTTYSYGSFDYWGQGTLVTVSS
VL: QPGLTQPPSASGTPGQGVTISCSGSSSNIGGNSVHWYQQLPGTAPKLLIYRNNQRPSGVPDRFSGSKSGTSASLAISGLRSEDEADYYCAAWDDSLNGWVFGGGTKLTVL
B7: Ab 20 (scFv, V domains shown)
VH: QVQLVQSGGGSVKPGGSLRLSCAASGYRLSDYYMHWVRQAPGKGLEWVANIKQDGSEKYYVDSVKGRFTISRDNAKNSLYLQMNSLRAEDTAVYYCARVRGWSRGYFDYWGQGTLVTVSS
VL: NFMLTQPHSVSESPGKTVTISCTGSSGSIASNYVQWYQQRPGSAPTTVIYEDNQRPSGVPDRFSGSIDSSSNSASLLISGLKTEDEADYYCQSYDSSNHWVFGGGTKLTVL
B8: S1-RBD-R3-T1-B12 Ab (Ab_31) (scFv, V domains shown)
VH: QVQLVQSGAEVKKPGSSVKVSCKASGGTFSSYTISWVRQAPGQGLEWMGGIIPILGTPNYAQKFQDRVAITADKSTSTAYMELSSLRSEDTAVYYCAVGSGWYSGFDYWGQGTLVTVSS
VL: B7 VL with N53S, L77T, Y94F, D95H, S96N, H99P, W100V, V101I
B9: RBD-R3-E1-G7 (Ab2-10) (scFv, V domains shown)
VH: EVQLVESGPGLVKPSETLSLTCTVSGGSISSYYWSWIRQPAGKGLEWIGRIYTSGSTNYNPSLKSRVTMSVDTSKNQFSLKLSSVTAADTAVYYCARDVGFGWFDRWGQGTLVTVSS
VL: B7 VL with G24R, A44S, L77T, K82T, Y94F, S97A, N98S, H99L
B10: Ab 25 (scFv, V domains shown)
VH: QVQLVQSGGGLVQPGGSLRLSCAASGFTFSSYWMSWVRQAPGKGLEWVANIKQDGSEKYYVDSVKGRFTISRDNAKNSLYLQMNSLRAEDTAVYYCARGFYYYGAFDIWGQGTTVTVSS
VL: B7 VL with D68G, L77T
B11: S1-RBD-R3-T1-F5 (Ab2-7) (scFv, V domains shown)
VH: QVTLKESGPTRVKPTQTLTLTCTFSGFSLSTTGVGVGWIRQPPGKALEWLALIYWNDDKRYSPSLKSRLTITKDTSKNQVVLTMTNMDPVDTATYYCARISGSGYFYPFDIWGQGTTVTVSS
VL: B7 VL with G24R, A44S, L77T, T83A, N98S, H99L
B12: Ab 28 (scFv, V domains shown)
VH: QVTLKESGPGLVNPSETLSLTCTVSGASISNSFWSWIRQSPGKGLEWIGYTSYSGNSIYNPSLKSRLTMSIDTSKNQLSLNLRSLTAADTAVYYCARREWIKGHFDYWGQGTLVTVSS
VL: B7 VL with S26G, L77T, H99P, W100V
B13: Ab_13 (scFv, V domains shown)
VH: B11 VH with T10K, R11L, T32S, N56D, T72A, N78Y, T117M, S122A
VL: B7 VL with G24R, L77T, H99L
B14: RBD-R3-T1-H3 (Ab_2) (scFv, V domains shown)
VH: EVQLVQSGAEVKKPGSSVKVSCKTSGYTFTTSGISWVRQAPGQGLEWMGWISAYNGNTNYAQKLQGRVTMTTDTSTSTAYMELRSLRSDDTAVYYCARDFHLYYGMDVWGKGTLVTVSS
VL: QSALTQPPSASGSPGQSVTISCTGTSSDVGAYNYVSWYQQHPGKAPKLLIYDVTKRPPGVPDRFSGSKSGNTASLTVSGLQAEDEADYYCAVWDDGLNGRVVFGGGTKLTVL
B15: S1-R3-T1-C4 (Ab_8) (scFv, V domains shown)
VH: QVQLVQSGAEVKKPGSSVKVSCKASGGTFSSYAISWLRQAPGQGLEWMGWINPNSGGTNYAQKFQGRVTMTRDTSISTAYMELSRLRSDDTAVYYCARGSGGYYLGWGQGTLVTVSS
VL: QPGLTQPPSVSKGLRQTATLTCTGNSNNVGNQGAAWLQQHQGHPPKLLSYMNNNRPPGISERFSASRSGNTASLTITGLQPEDEADYYCSAWDSSLSRWVFGGGTKLSVL
B16: RBD-R3-E1-B3 Ab (Ab_32) (scFv, V domains shown)
VH: QVQLVQSGAEVKKPGESLKISCKGSGYSFTSYWIGWVRQMPGKGLEWMGIIYPGDSDTRYSPSFQGQVTISADKSISTAYLQWSSLKASDTAMYYCARGWQWHDYWGQGTLVTVSS
VL: QTVVTQEPAVSVALGQTVRITCQGDSLRSYYASWYQQKPGQAPVLVVYDKDKRPSGIPDRFSGSTSGNTASLTITGAQAEDEADYYCNSRDRSDNHVVFGGGTKLTVL
B17: Ab_17 (scFv, V domains shown)
VH: QVQLVQSGGGVVQPGRSLRLSCAASGFTFDDYAMHWVRQVPGKGLEWVSGIDWNSGVIGYADSVKGRFTISRDNVKNSLYLQMNSLRTEDSALYYCAKDIGPGGSGSYYAFDIWGQGTTVTVSS
VL: QSALTQPASVSGSPGQSITISCTGTSSDVGGSKYVSWYQQHPGKAPKVMIYDVTKRPSGVPDRFSGSKSGNTASLTISGLQAEDEADYYCAAWDDSLNGVVFGGGTKLTVL
B18: Ab 21 (scFv, V domains shown)
VH: QVQLVQSGGGLVQPGGSLRLSCATSGFTFDDYAMHWVRQAPGKGLEWVSGISWNSGSIGYVDSVKGRFTISRDNRNNKVYLQMNNLRAEDTAVYYCARDWWGSIDHWGLGTLVTVSS
VL: QSALTQPRSVSGSPGQSVTISCTGTSSDVGGYDYVSWYQQHPGKAPKLIIYDVSKRPSGVPDRFSGSKSGNTASLTVSGLQAEDEADYYCSSYTSSSPVVFGGGTKLTVL
B19: S1-RBD-R3-T1-C7 Ab (Ab 29) (scFv, V domains shown)
VH: QVQLQQSGPGLVKPSQTLSLTCAISGDSVSSYSDAWNWIRQSPSRGLEWLGRTYYRSKWYNDYAVSVKSRITINPDTSKNQFSLQLSSVTPEDTAVYYCAREIVATTPFRNYYYGMDVWGQGTTVTVSS
VL: NFMLTQPHSVSESPGNTVTISCTRTSGSIASNYVQWYQQRPGSSPTTVIFQDKLRPSGVPDRFSGSIDSSSNSASLTISGLKTEDEADYYCQSYDSSSLWVFGGGTKLTVL
B20: Ab 26 (scFv, V domains shown)
VH: QVQLVQSGGGLVQPGRSLRLSCAASGFTFDDYAMHWVRQVPGKGLEWVSGIDWNSGVIGYADSVKGRFTISRDNAKNSLYLQMNSLRAEDTALYYCAKDAYSYGFLGAFDIWGQGTMVTVSS
VL: LPVLTQPPSVSVAPGQTASITCGGDNIRTKGVHWYQQKPGQAPLLVIYYASDRPSGIPERFSGSSSGNTATLTISRVEAGDEADYYCQVWDSSSDLVVFGGGTTLTVL
B21: S1-RBD-R3-T1-E2 (Ab7) (scFv, V domains shown)
VH: B20 VH
VL: QPGLTQPPSVSVAPGQTARISCGGNNIGSKSVHWYQQKPGRAPVLVVYEDRGRPSGIPERFSGSNSGNTATLTVSRVEAGDEADYYCQVWDGDSDHYVFATGTKVSIL
B22: Ab_19 (scFv, V domains shown)
VH: EVQLVESGAEVKKPGESLKISCKGSGYSFTSYWIGWVRQMPGKGLEWMGIIYPGDSDTRYSPSFQGQVTISADKSISTAYLQWSSLKASDTAMYYCARRGDLDAFDIWGQGTMVTVSS
VL: QPGLTQPPAASGTPGQRVTVSCSGASANIGSNAVSWFKQFPETAPRLLISGNTHRPSGVPDRVSGSKSGTSASLTISGLQSDDEADYYCAAWDDSLNGYVFGSGTKVTVL
B23: Ab_18 (scFv, V domains shown)
VH: EVQLVQSGGGVVQPGRSLRVSCAASGFSFSRYGMHWVRQAPGKGLEWVAFIRHDGSKKYYADSVEGRFTISRDNSRNTVSLEMNSLRGEDTAVYYCAKDGRLEAALDDWGQGTLVTVSS
VL: NFMLTQPHSMSGSAGKTVTVSCIRSSGSIANNFVQWYQQRPGSAPTTVIYEDNQRPSGVPDRFSGSIDSSSNSASLTISGLKTEDEADYYCQSYDSSNLVFGGGTRLTVL

molecular target: WT Spike (SARS-CoV-2, UniProt P0DTC2 16-1213)

| Binder | Kd |
| --- | --- |
| B1 | 8.78 pM |
| B2 | 8.22 pM |
| B3 | 11.8 pM |
| B4 | 8.84 pM |
| B5 | 1.02 pM |
| B6 | 6.58 pM |
| B7 | 9.01 pM |
| B8 | < 1 pM |
| B9 | 5.65 pM |
| B10 | 8.9 pM |
| B11 | 7.85 pM |
| B12 | 8.9 pM |
| B13 | 8.55 pM |
| B14 | 199 pM |
| B15 | 7.15 pM |
| B16 | 6.32 pM |
| B17 | 6.35 pM |
| B18 | 9.25 pM |
| B19 | 149 pM |
| B20 | 11 pM |
| B21 | 7 pM |
| B22 | 8.9 pM |
| B23 | 9.07 pM |
